Experimental data from the supplement of paper PMC9170038.

System: MS2 coat protein
Experiment: apparent KD of MS2 coat protein; designed switch direction (-1 OFF switch, 1 ON switch): 1; higher = weaker reporter binding
How it was run: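 The reported apparent KD is a per-design median over clusters, from curve fits of normalised cluster fluorescence. Protein titrations used SNAP-549-labelled MS2 coat protein, doubled from 0.7 or 1.5 nM to 3 µM, in Tris-HCl pH 7.5 buffer with KCl, MgCl2, BSA, DTT, tRNA and Tween-20, with no input, 200 uM small-molecule ligand, or an oligonucleotide input. The RNA switches were transcribed on Illumina chips by stalled E. coli RNA polymerase.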

[1] = input ligand: microRNA oligo, concentration not stated

| Sequence | apparent KD of MS2 coat protein (Eterna round: R95, input ligand: FMN 200 uM) [nM] | apparent KD of MS2 coat protein (Eterna round: R95, input ligand: microRNA oligo, concentration not stated) [nM] | apparent KD of MS2 coat protein (Eterna round: R95, input ligand: none) [nM] | apparent KD of MS2 coat protein (input ligand: FMN 200 uM) [nM] | apparent KD of MS2 coat protein [1] [nM] | apparent KD of MS2 coat protein (input ligand: none) [nM] |
| --- | --- | --- | --- | --- | --- | --- |
| GCGGAACAUGAGGAUCACCCAUGUGGAGGGUGUAAAGGAUAUUAUAGAGAGAAGGUAGGGUAAGAAGGUUGCUUGG [JR_SS1_Sub089] (puzzle: Same State 1) | 202 | 96 | 541 | – | – | – |
| GCGGACUUCACAUGAGGAUCACCCAUGUUGCGGAGACGCAAUGAGGAUAUCGAUGGGUUUCCCGUCGAGAAGGCAUAAAUCCGC [JL SSNG3 3.93 mod 5] (Eterna round: R96, puzzle: Same State NG 3) | – | – | – | 25.2 | 30 | 49.8 |
| GCUACCAAAGAAGCCAACAUGAGGAUCACCCAUGUAUGUUGGCAGGAUAUCGUUUGCAAAGCGAACGAGAAGGGCUAAGGUAGC [Mat - Same State NG 3 - JL Mod - D89] (Eterna round: R96, puzzle: Same State NG 3) | – | – | – | 197 | 116 | 231 |
| GCUACCAAAGAAGCCAACAUGAGGAUCACCCAUGUAUGUUGGUAGGAUAUCGAUUGCAAAGCGAUCGAGAAGGGCUAAGGUAGC [Mat - Same State NG 3 - JL Mod - D84] (Eterna round: R96, puzzle: Same State NG 3) | – | – | – | 132 | 93.1 | 95.5 |
| GCUACCAAAGAAGCCAACAUGAGGAUCACCCAUGUAUGUUGGUAGGAUAUCGUAUGCAAAGCAUACGAGAAGGGCUAAGGUAGC [Mat - Same State NG 3 - JL Mod - D78] (Eterna round: R96, puzzle: Same State NG 3) | – | – | – | – | 86.9 | – |
| GCUACCAAUGAAGCCAACAUGAGGAUCACCCAUGUAUGUUGGUAGGAUAUCGAUUGCAAAGCGAUCGAGAAGGGCUAAGGUAGC [Mat - Same State NG 3 - JL Mod - D82] (Eterna round: R96, puzzle: Same State NG 3) | – | – | – | 51.9 | 59.6 | 54.5 |
| GCUACCAAUGAAGCCAACAUGAGGAUCACCCAUGUAUGUUGGUAGGAUAUCGUUUGCUUUGCAAACGAGAAGGGCUAAGGUAGC [JL SSNG3 1.26] (Eterna round: R96, puzzle: Same State NG 3) | – | – | – | 42.2 | 39.2 | 42.6 |
| GCUAGAAAUAAAGCCAACAUGAGGAUCACCCAUGUAUGUUGGUAGGAUAUCGUUUGCAAAGCAAACGAGAAGGGCUAAACUAGC [Mat - Same State NG 3 - JL Mod - D17] (Eterna round: R96, puzzle: Same State NG 3) | – | – | – | 61.6 | 68.8 | 61 |
| GCUAGAAAUAAUGCCAACAUGAGGAUCACCCAUGUAUGUUGGCAGGAUAUCGUUUGCAAAGCAAACGAGAAGGGCUAAACUAGC [Mat - Same State NG 3 - JL Mod - D8] (Eterna round: R96, puzzle: Same State NG 3) | – | – | – | 236 | 237 | 338 |
| GCUAGAAUAAAUGCCUACAUGAGGAUCACCCAUGUAUGUAGGCAGGAUAUCGUAUGCAAAGCAUACGAGAAGGGCCUUACUAGC [Mat - Same State NG 3 - JL Mod - D30] (Eterna round: R96, puzzle: Same State NG 3) | – | – | – | 22.7 | 55.4 | 85.2 |
| GCUAGAAUUAAAGCCAACAUGAGGAUCACCCAUGUAUGUUGGUAGGAUAUCGUUUGCUUUGCAAACGAGAAGGGCUAAUCUAGC [JL SSNG3 1.22] (Eterna round: R96, puzzle: Same State NG 3) | – | – | – | 62.4 | 59.8 | 69.2 |
| GCUAGGAUAUGACGAGGAUCACCCGUUAGAAGGAGCGAAAGCUAGGAUAUGACGAGGAUCACCCGUUAGAAGGAGCUGUCCUCU [pwkr ssNG3 DX 2xF5 +2xFMN.11] (Eterna round: R96, puzzle: Same State NG 3) | – | – | – | 200 | 80.1 | 111 |
| GCUAGGAUUAAAGCCAACAUGAGGAUCACCCAUGUAUGUUGGUAGGAUAUCGUUUGCUUUGCAAACGAGAAGGGCUAACCUAGC [JL SSNG3 1.23] (Eterna round: R96, puzzle: Same State NG 3) | – | – | – | 70.6 | 57.8 | 62.1 |
| GCUCCAAACACAGGAUAUGGAAUCUGAUUCAUGCGAGUGACAUGAGGAUCACCCAUGUCCGGCAGCCAGAAGGGUGGGAAACAU [Eternabot solution 27] (Eterna round: R96, puzzle: Same State NG 2) | – | – | – | 184 | 151 | 201 |
| GCUCGACGUAUUGUCUACAUGAGGAUCACCCAUGUAGGUGCGGAGGAUAUCUACGUGUUUCAUGUAGAGAAGGUCGUGUCGAGC [SameState NG3 #90] (Eterna round: R96, puzzle: Same State NG 3) | – | – | – | 56 | 155 | 177 |
| GCUCGACGUAUUGUCUACAUGAGGAUCACCCAUGUAGGUGCGGAGGAUAUUUACGUGUCUCAUGUAGAGAAGGCCGUGUCGAGC [SameState NG3 #96] (Eterna round: R96, puzzle: Same State NG 3) | – | – | – | 37.1 | 216 | 329 |
| GCUCGACGUAUUGUCUACAUGAGGAUCACCCAUGUAGGUGCGGAGGAUAUUUACGUGUUUCAUGUAGAGAAGGUCGUGUCGAGC [SameState NG3 #94] (Eterna round: R96, puzzle: Same State NG 3) | – | – | – | 27.8 | 166 | 185 |
| GCUCGAUGAAAGUCCUACAUGAGGAUCACCCAUGUACGUGGGCAGGAUAUCUACAUGCAGAAUGUAGAGAAGGGCCCGUCGAGC [SameState NG3 #58] (Eterna round: R96, puzzle: Same State NG 3) | – | – | – | 15.1 | 16.5 | 17.4 |
| GCUCGAUGAAAGUCCUACAUGAGGAUCACCCAUGUACGUGGGCAGGAUAUUUACAUGCAGAGUGUAGAGAAGGGCCCAUCGAGC [SameState NG3 #61] (Eterna round: R96, puzzle: Same State NG 3) | – | – | – | 18.3 | 50.2 | 76.4 |
| GCUCGAUGAGCGGUUUACAUGAGGAUCACCCAUGUACGUGGGCAGGAUAUUUACGUGCUUUGUGUAGAGAAGGGCCCAUCGAGC [SameState NG3 #73] (Eterna round: R96, puzzle: Same State NG 3) | – | – | – | 39.8 | 191 | 405 |
| GCUCGAUGAGCGUUCUACAUGAGGAUCACCCAUGUUCGUGGGCAGGAUAUUUACGUGCAGAGUGUAGAGAAGGGCCCAUCGAGC [SameState NG3 #67] (Eterna round: R96, puzzle: Same State NG 3) | – | – | – | 1260 | 270 | 196 |
| GCUCGAUGAGCGUUUUACAUGAGGAUCACCCAUGUACGUGGGCAGGAUAUUUACGUGCGGUGUGUAGAGAAGGGCCCAUCGAGC [SameState NG3 #70] (Eterna round: R96, puzzle: Same State NG 3) | – | – | – | 48.3 | 243 | 279 |
| GCUCGCGGCACAGGAUAUGGGUGCCUGUACAUGAGGAUCACCCAUGUUAAGGGACGGAUUACGAACCAGAAGGGUGAGGCGGGC [Axearisar] (Eterna round: R96, puzzle: Same State NG 2) | – | – | – | 63.8 | 120 | 768 |
| GCUCGGCUGAUGGCCCACAUGAGGAUCACCCAUGUGACUGGGCAGGAUAUCUAGAUGCAGGAUGUAGAGAAGGGCCUGCCGAGC [SameState NG3 #41] (Eterna round: R96, puzzle: Same State NG 3) | – | – | – | 358 | 98.8 | 155 |
| GCUCGUAUCACAGCCAACAUGAGGAUCACCCAUGUAUGUUGGUAGGAUAUCUAUAUUAAGGAUAUAGAGAAGGGCCGAACGAGC [SameState NG3 #11] (Eterna round: R96, puzzle: Same State NG 3) | – | – | – | 121 | 126 | 145 |
| GCUCGUGGUAUUGUCUACAUGAGGAUCACCCAUGUAGGUGCGGAGGAUAUCUACGUGUCUCAUGUAGAGAAGGCCGUCACGAGC [SameState NG3 #98] (Eterna round: R96, puzzle: Same State NG 3) | – | – | – | 20.3 | 36.2 | 89.4 |
| GCUGCAAAGGCAGGAUAUGGGUUCAGAGCGGAAGUGCGCUUUGACACAUGAGGAUCACCCAUGUCCCAGAAGGGCCCAAGCGGC [Ateanso] (Eterna round: R96, puzzle: Same State NG 2) | – | – | – | 21.2 | 120 | 178 |
| GCUGCAAGGGCAGGAUAUGGGUCCAAAGCGCAAGUGCGCUUUGGUACAUGAGGAUCACCCAUGUCCCAGAAGGGCCCAAGCGGC [Quzaceza] (Eterna round: R96, puzzle: Same State NG 2) | – | – | – | 15.6 | 83.1 | 140 |
| GCUGCAAUUAACGCCUACAUGAGGAUCACCCAUGUAUGUAGGCAGGAUAUCGUUUGCAAAGCAAACGAGAAGGGCCGUAGUAGC [Mat - Same State NG 3 - JL Mod - D34] (Eterna round: R96, puzzle: Same State NG 3) | – | – | – | 28.9 | 48.9 | 73.8 |
